Assay results taken from the supplement of paper PMC7125110.
± gives the standard error. Fewer inactive variants are shown than the library holds.

B1: glmS ribozyme (parent)
chain: AUAAAAGCGCCAGAACUACAGAAAUGUAGUUGACGAGGAGGAGGUUUAUCGAAUUUUCGGCGGAUGCCUCCAAA

Variants of: B1
Experiment: self-cleavage kobs at 2500 uM GlcN6P; higher = faster cleavage; RNA array
Conditions: with glucosamine-6-phosphate
How it was run: (§1)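 kobs was derived by fitting per-tile medians to one- or two-exponential decays after normalising signals to baseline and to non-cleaving reference variants. Those signals came from barcoded ribozyme variants transcribed in situ by E. coli RNA polymerase on sequenced MiSeq chips, followed through a hybridised Cy3 probe at 37 °C and imaged over ~14 h. Glucosamine-6-phosphate (40 μM to 10 mM) in HEPES/KCl/Mg(OAc)2 buffer was flowed in. Weighted Michaelis–Menten fits across concentrations then gave kcat and KM.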

AUAAAGGCGCCAGAAAUACAGAAAUGUAGUUGAAGUGGAGGAUGUUUAUCGAAUUUUCGGCGGAUGCCUCCAAA [A6G C16A C34A A36U G43U] and AUAAAAGCGCCAGAACUACAGAAAUGUAGUUGACCAGGAGGAGGUCUAUCGCACUUUCGGCGGAUGCCUCCAAA [G35C U46C A52C U54C] cannot be ordered by “self-cleavage kobs at 2500 uM GlcN6P” value: < 1e-05 s⁻¹ for the first, < 1e-05 s⁻¹ for the second.

Compared with AUAAAAGCGCCAGAGCUACAGAAAUGUAGUUGACGAGGAGGAGGUUUAUCGAAUAUUCGGCGGAUCCCUCCAAA [A15G U55A G66C], AUAAAAGCGCCAGAGCUACAGAAAUGUAGUUGACGAGGUGGAGGUUUAUCGAAUUUUCGCCGGAUGCCUCCAAA [A15G A39U G60C] is lower in “self-cleavage kobs at 2500 uM GlcN6P” value: 0.000727 ± 0.00013 s⁻¹ for the first, < 1e-05 s⁻¹ for the second.

Going from AUAAAACCGCCUGAACUACAGAAAUGUAGUUGACGAGGGGGAGGUUUAUCGAUUUUUCGGCGGAUGCCUCCAAA [G7C A12U A39G A53U] to AUAAAAGCGACAGAACUACAGAAAUGUAGUUGACGAGGAGGAGGUUGAUCGAAUUUUCUGCGGAUGCUUCCAAA [C10A U47G G59U C68U], the “self-cleavage kobs at 2500 uM GlcN6P” value rises from < 1e-05 s⁻¹ to 5.63e-05 ± 1.7e-05 s⁻¹.

AUAAAAGCGCCAGACCUACAGAAAUGUAGUGGACGAGGAGGAGGUUUAUCGAAUUUUCCGCGGAUGCCUCCAAA [A15C U31G G59C] and AUAAAAGCGCCGUAACUACAGAAAUGUAGUUGACGAGGAGGAGGUUUAUCGAAUUUUCGUCGGAUGCCUCCAAA [A12G G13U G60U] cannot be ordered by “self-cleavage kobs at 2500 uM GlcN6P” value: < 1e-05 s⁻¹ for the first, < 1e-05 s⁻¹ for the second.

Compared with AUAAAAGCGCCAGAACUACAGAAAUGUAGUUGAGCAGGAGGAGGUUUAUCCAAUUUGUGGCGGAUGCCUCCAAA [C34G G35C G51C U57G C58U], AUAAAAGCGCCAGAACUACAGAAAUGUAGUAGACGAGGAGGAGGUCUAUCGAAUUUUCGGCGGAUGCCUCCAAA [U31A U46C] is higher in “self-cleavage kobs at 2500 uM GlcN6P” value: < 1e-05 s⁻¹ for the first, 0.000756 ± 0.00018 s⁻¹ for the second.

AUAAAAGCGCCAGGACUACAGAAAUGUAGUUGACGAGGAGUAGGUUUAUCGAAUUUUCGGCGGAUGCCACCAAA [A14G G41U U69A] and AUAAAAGCGCCAGAAAUACAGAAAUGUAGUCGACGAGGAGGAAGUUGAUCGAGUUUUCGGCGGAUGCUUCCAAA [C16A U31C G43A U47G A53G C68U] are within error of each other in “self-cleavage kobs at 2500 uM GlcN6P” value: 8.6e-05 ± 2e-05 s⁻¹ for the first, 8.35e-05 ± 2.9e-05 s⁻¹ for the second.

AUAAAAGCGCUAGAACUACAGAAAUGUAGUUGACGAGGAGGAGGUUUUUCGAAUUUUCGUCGGAUGCCUCCAAA [C11U A48U G60U] and AUAAAAGCGCCAGAACUACAGAAAUGUAAUUGACGAGGAGGAGGUUUAUCGAAUUUUCGUCGGGUGCCUCCAAA [G29A G60U A64G] cannot be ordered by “self-cleavage kobs at 2500 uM GlcN6P” value: < 1e-05 s⁻¹ for the first, < 1e-05 s⁻¹ for the second.

Compared with AUAAAAGCGACAGAAGUACAGAAAUGUAGUUGACGAGGAGGAGGUUUAUAGAAUUUUGGGUGGAUGCCUCCAAA [C10A C16G C50A C58G C61U], AUAAAAGCGCCACAACUACAGAAAUGUAGUUGACGAGGAGGAGGUUAAUCGAAUUUUCGGCGGAUGCCGCCAAA [G13C U47A U69G] is 8.1-fold higher in “self-cleavage kobs at 2500 uM GlcN6P” value: 6.15e-05 ± 1.9e-05 s⁻¹ for the first, 0.000497 ± 0.00015 s⁻¹ for the second.

Going from AUAAAAGCGCUAGAACUACAGAAAUGUAGUUGACGAGGAGGAGGUGUAUCGUAUUUUCGGCGGAUACCUCCAAA [C11U U46G A52U G66A] to AUAAAAGCGCCAGAACUACAGAAAUGUAGUUGCCGAGGAGGAGGUUUAUCGAAUUGUCGGCGGAUGCCUCCAAA [A33C U56G], the “self-cleavage kobs at 2500 uM GlcN6P” value rises from < 1e-05 s⁻¹ to 5.24e-05 ± 2.2e-05 s⁻¹.

AUAAAAGCGCCGGAACUACAGAAAUGUAGUUUACGAGGAGGAGGGUUAUCGAAUUUUCUGCGGAUGCCUCCAAA [A12G G32U U45G G59U] and AUAAAAGCGCCAGAACUACAGAAAUGUAGUUGACGAGGAGGCGGUUUAUCGAAUUUUCGGCGGACGCCUCGAAA [A42C U65C C71G] cannot be ordered by “self-cleavage kobs at 2500 uM GlcN6P” value: < 1e-05 s⁻¹ for the first, < 1e-05 s⁻¹ for the second.

AUAAAAGCGCCAUAACUACAGAAAUGUAGUUGACGAGGAGGAGGUUUAUCGAAUUUGCGGCGGACGCCUCCAAA [G13U U57G U65C] and AUAAAAGCGCCAGAACUACAGAAAUGUAGUUGGUGAGGAGGAGGUUUAACGAAUUUUCGGCGGAUGCCUCCAAA [A33G C34U U49A] cannot be ordered by “self-cleavage kobs at 2500 uM GlcN6P” value: < 1e-05 s⁻¹ for the first, < 1e-05 s⁻¹ for the second.

AUAAAAGCGCCUGAACUACAGAAAUGUAGUUAACUAGGAGGAGGUUUAACGAAUUUUCGGGGGACACCUCCAAA [A12U G32A G35U U49A C61G U65C G66A] and AUAAAAGCGCCACAACUACAGAAAUGUAGUUGGCAAGGAGGAGGUUUGUCGAAUUUUCGGCGGGUGCCUCCAAA [G13C A33G G35A A48G A64G] cannot be ordered by “self-cleavage kobs at 2500 uM GlcN6P” value: < 1e-05 s⁻¹ for the first, < 1e-05 s⁻¹ for the second.

First: AUAAAAGCGCCAGAACUACAGAAAUGUAUUUGACGAGGAGGAGGUUUAUCGAAUUUACGGCGGAUGCGUCCAAA [G29U U57A C68G]
Second: AUAAAAGCCCCGGAACUACAGAAAUGUAGUUGACGAGGAGGAGGUUUAUCGAAUUUUGGGCGGAUGCCUCCAAA [G9C A12G C58G]
The “self-cleavage kobs at 2500 uM GlcN6P” value of the first is higher: 8.07e-05 ± 2.8e-05 s⁻¹ for the first, < 1e-05 s⁻¹ for the second.

Compared with AUAAAAGCGCCAGAACUACAGAAAUGUAGUUGAGGAGAAGGAGUUUUAUCGAAUUUUCGGCGAAUGCCUCCAAA [C34G G38A G44U G63A], AUAAAAGCGCCAGAACUACAGAAAUGUAGGUGACGAGGAGGAGGUUUAUCGAAUUGUCGGCGGAUGCCUCAAAA [U30G U56G C71A] is higher in “self-cleavage kobs at 2500 uM GlcN6P” value: < 1e-05 s⁻¹ for the first, 0.000262 ± 6.3e-05 s⁻¹ for the second.

AUAAAAGCGCCAGACCUACAGAAAUGUAGUUGACGAUGACGAGGUUUAUCGAAUUUUCGGCGGAUGCCUCCAAA [A15C G37U G40C] and AUAAAAGCGCUAGAACUACAGAAAUGUAGUUGACGAGGAGGAGCUUUAUCGUAUUUUCGCCGGAUGCCUCCAAA [C11U G44C A52U G60C] cannot be ordered by “self-cleavage kobs at 2500 uM GlcN6P” value: < 1e-05 s⁻¹ for the first, < 1e-05 s⁻¹ for the second.

Going from AUAAAAGCGCCAGAACUACAGAAAUGUAGUUGACGAGGGGGAGGUUUAUCGAAUUUUCGGCGGAUACCGCCAAA [A39G G66A U69G] to AUAAAAGCGCCCGGACUACAGAAAUGUAGUUGACGAGGACGAGGUUUAUCGAAUUGUCGGCGGAUGCUUCCAAA [A12C A14G G40C U56G C68U], the “self-cleavage kobs at 2500 uM GlcN6P” value falls from 3.43e-05 ± 1.3e-05 s⁻¹ to < 1e-05 s⁻¹.

AUAAAAGCGCCAGAACUACAGAAAUGUAGUUGACGAGGAUGAGGUUUUUCGUAUUUUCGGCGGAUGCCUCCAAA [G40U A48U A52U] and AUAAAAGCGCCAGAACUACAGAAAUGUAGUUGACGAGGAGAUGGUUUAUCGAAUUUUCGGCAGAUGCCUCCAAA [G41A A42U G62A] cannot be ordered by “self-cleavage kobs at 2500 uM GlcN6P” value: < 1e-05 s⁻¹ for the first, < 1e-05 s⁻¹ for the second.

Variants of: B1
Experiment: self-cleavage kobs at 10000 uM GlcN6P; higher = faster cleavage; RNA array
Conditions: with glucosamine-6-phosphate
How it was run: as §1

Compared with AUAAAAGCGCCGUAACUACAGAAAUGUAGUUGACGAGGAGGAGGUUUAUCGAAUUUUCGUCGGAUGCCUCCAAA [A12G G13U G60U], AUAAAAGCGCCAGAACUACAGAAAUGUAGUUGCCGAGGAGGAGGUUUAUCGAAUUGUCGGCGGAUGCCUCCAAA [A33C U56G] is higher in “self-cleavage kobs at 10000 uM GlcN6P” value: < 1e-05 s⁻¹ for the first, 5.35e-05 ± 1e-05 s⁻¹ for the second.

For AUAAAAGCGCCAUAACUACAGAAAUGUAGUUGACGAGGAGGAGGUUUAUCGAAUUUGCGGCGGACGCCUCCAAA [G13U U57G U65C], the “self-cleavage kobs at 10000 uM GlcN6P” value was < 1e-05 s⁻¹.
